These results are taken from publication PMC10157535, “Structural basis of phosphorylation-induced activation of the response regulator VbrR”.

Data set [1] addresses VbrR receiver domain (RD, 1-117) (Vibrio parahaemolyticus). Nature of the data set: SEC-MALS; SEC-MALLS, Superdex-200 10/30, buffer A supplemented with 5.3 mM BeSO4, 35 mM NaF and 7 mM MgCl2 (BeF3-), 100 uL of ~10 mg/mL protein injected. (In general: SEC sorts molecules by how far they enter the pores of the column.)
The target in data set [2] is full-length VbrR (response regulator VbrR from Vibrio parahaemolyticus) (Vibrio parahaemolyticus). Description: SEC-MALS; SEC-MALLS, Superdex-200 10/30, buffer A (20 mM Tris-HCl pH 8.0, 100 mM NaCl), 100 uL of ~10 mg/mL protein injected, 0.5 mL/min; no BeF3-.
Data set [3] concerns the target VbrR DNA-binding domain (DBD, 125-220) (Vibrio parahaemolyticus). The description is as above.
Data set [4] addresses T1, VbrR (state not stated) (Vibrio parahaemolyticus, UniProt A0A0L8SKF9 1-220).
T1 sequence: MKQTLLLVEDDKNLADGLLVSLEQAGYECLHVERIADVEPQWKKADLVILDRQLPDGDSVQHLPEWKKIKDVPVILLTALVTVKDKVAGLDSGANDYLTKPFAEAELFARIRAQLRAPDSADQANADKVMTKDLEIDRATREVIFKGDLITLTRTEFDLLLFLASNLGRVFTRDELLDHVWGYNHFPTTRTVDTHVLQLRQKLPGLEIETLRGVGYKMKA
Nature of the data set: BLI; 10-160 uM DNA; text order of the two values (0.69, 0.77) matches 30 bp then 49 bp; BLI (Octet RED, biotinylated protein on streptavidin sensors), PBS: 10 mM phosphate pH 7.4, 2.7 mM KCl, 137 mM NaCl, 25 C; 1:1 fit. The note with it: protein: recombinant, tags: N-terminal 6xHis, chain copies: 2. In general terms: BLI is a label-free optical method that tracks binding on a fibre tip over time.

Data set [5] addresses T1, VbrR (state not stated). Description: BLI; 2.5-80 uM DNA; oligomeric state not stated; BLI (Octet RED, biotinylated protein on streptavidin sensors), PBS: 10 mM phosphate pH 7.4, 2.7 mM KCl, 137 mM NaCl, 25 C; 1:1 fit. The note with it: protein: recombinant, tags: N-terminal 6xHis, chain copies: 2.
Data set [6] has as its target T2, VbrR (monomer fraction) (Vibrio parahaemolyticus, UniProt A0A0L8SKF9 1-220).
T2 sequence: T1 sequence
Nature of the data set: BLI; VbrR monomer; BLI (Octet RED, biotinylated protein on streptavidin sensors), PBS: 10 mM phosphate pH 7.4, 2.7 mM KCl, 137 mM NaCl, 25 C; 1:1 fit. The note with it: protein: recombinant; tags: N-terminal 6xHis; biotinylated for BLI.

In data set [7] the target is T3, VbrR DBD (monomer fraction) (Vibrio parahaemolyticus, UniProt A0A0L8SKF9 125-220).
T3 sequence: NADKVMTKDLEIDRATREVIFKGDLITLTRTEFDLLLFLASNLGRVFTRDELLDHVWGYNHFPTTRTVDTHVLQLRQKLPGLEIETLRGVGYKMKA
Nature of the data set: BLI; DBD monomer; BLI (Octet RED, biotinylated protein on streptavidin sensors), PBS: 10 mM phosphate pH 7.4, 2.7 mM KCl, 137 mM NaCl, 25 C; 1:1 fit. The note with it: protein: recombinant, tags: N-terminal 6xHis.

The target of data set [8] is T2, VbrR (monomer fraction). Description: crystal structure; 4.6 A; VbrR dimer on DNA; BLI (Octet RED, biotinylated protein on streptavidin sensors), PBS: 10 mM phosphate pH 7.4, 2.7 mM KCl, 137 mM NaCl, 25 C; 1:1 fit. Conditions: protein: recombinant; tags: N-terminal 6xHis; biotinylated for BLI; chain copies: 2; blunt.

Usually stoichiometry N stands for the number of molecules, sites or subunits per partner or assembly. The term Kd denotes the constant that tells how readily two partners part at equilibrium.

For “VbrR receiver domain (RD, 1-117) (domain or fragment)”, the stoichiometry N in data set [1] was determined as 2.
In the case of “full-length VbrR (response regulator VbrR from Vibrio parahaemolyticus) (natural protein)”, the stoichiometry N in data set [2] came out at 2.
For the molecule “VbrR DNA-binding domain (DBD, 125-220) (domain or fragment)”, the stoichiometry N in data set [3] is 2.

B1: exsC promoter 30 bp (dsDNA)
DNA 1: AACACAATTCTAATTCTTCATCGCTTGTCG
DNA 2: CGACAAGCGATGAAGAATTAGAATTGTGTT
Take B1: the dissociation constant Kd in data set [4] was determined as 690 nM.

B2: exsC promoter 49 bp (dsDNA)
DNA 1: AACACAATTCTAATTCTTCATCGCTTGTCGATATAAACCAAAATCCCAC
DNA 2: GTGGGATTTTGGTTTATATCGACAAGCGATGAAGAATTAGAATTGTGTT
On to B2, for which the dissociation constant (Kd) in data set [5] stood at 770 nM; in data set [6] it was 270 nM; in data set [7], 140 nM.

B3: exsC promoter 26 bp (dsDNA)
DNA 1: CACAATTCTAATTCTTCATCGCTTGT
DNA 2: ACAAGCGATGAAGAATTAGAATTGTG
In the case of B3, the binding result in data set [8] is recorded as “binds”.
